The source of these data is US20190322762A1.

Assay [1] has as its target ENO1 with amino acid residues 297 to 434 deleted (human) (UniProt P06733). The assay is described as follows: ELISA, ENO1 deletion mutant Δ297-434 coated, 10 microgram of EN10 mAb.
The target of assay [2] is ENO1 mutant 1-189 (human) (UniProt P06733). Nature of the assay: ELISA, 400 ng protein coated, 10 microgram of EN10 mAb.
The target of assay [3] is ENO1 mutant 1-297 (human) (UniProt P06733). Described as above.

Sequence of ENO1 with amino acid residues 297 to 434 deleted (human) (P06733 1-296, stated change not applied): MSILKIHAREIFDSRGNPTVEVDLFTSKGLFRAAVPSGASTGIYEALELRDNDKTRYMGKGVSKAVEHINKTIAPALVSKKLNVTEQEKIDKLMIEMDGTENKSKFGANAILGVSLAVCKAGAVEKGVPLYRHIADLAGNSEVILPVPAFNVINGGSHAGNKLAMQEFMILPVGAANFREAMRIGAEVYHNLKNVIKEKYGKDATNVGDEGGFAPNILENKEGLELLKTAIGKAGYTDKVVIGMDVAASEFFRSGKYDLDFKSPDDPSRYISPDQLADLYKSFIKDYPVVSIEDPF

B1: EN10 mAb (antibody, V domains shown)
VH: EVQLQQSGPELVKPGASVKMSCKASGYTFTSCVMNWVKQKPGQGLEWIGYINPYNDGTKYNEKFKGKATLTSDKSSSTAYMELSSLTSEDSAVYYCAREGFYYGNFDNWGQGTTLTVSS
VL: DIQMTQSPASLSASVGETVTITCRASENIYSYLTWYQQKQGKSPQLLVYNAKTLPEGVPSRFSGSGSGTQFSLKINSLQPEDFGSYYCQHHYGTPYTFGGGTKLEITR
On to B1, for which, in assay [1], the OD450 was found to be 0.47. Further, the OD405 in assay [2] amounted to 1.43 OD405; in assay [3], 1.56 OD405. Also, the figures for the OD405 as percent of that of the wild type ENO1 in assay [2] and in assay [3] were 42% and 39%, respectively.
